Reference: patent publication US20070129537A1 (University of California, published 2007)
Ends that are not written are not given here.

Biological target: T1, natural proline-rich peptide ligand C3G, PPPALPPKKR (peptide SEQ ID NO: 11)
T1 peptide: PPPALPPKKR-NH2
Test: fluorescence-based titration (excitation 300 nm, emission 348 nm), 25 C, 0.5 uM protein, 1:1 complex assumed
Description: The ligated product is marked with an asterisk. […] The ligation product was by far the main product and could be easily isolated by semipreparative HPLC. Referring to FIG. 6B, characterization of the product by ES-MS confirmed the identity of the SH3 ligated domain. The ligated SH3 domain was readily purified by HPLC and refolded by flash dilution in 20 mM sodium phosphate, 100 mM NaCl at pH 7.2. The ligand binding activity of the synthetic SH3 domain was evaluated using a fluorescence-based titration assay. […] Referring to FIG. 6C, the equilibrium dissociation constant for binding of the synthetic SH3 domain to the natural proline-rich peptide ligand C3G i.e., […] (peptide SEQ ID NO: 11), was 0.9 μM. […]
Fluorescence-based Ligand Binding Assay. The equilibrium dissociation binding constant of synthetic SH3 domain for ligand SEQ ID NO: 11 was obtained using a fluorescence-based titration assay. […] Excitation was at 300 nm with a 2.5 nm slit and the fluorescence emission was monitored at 348 nm through a 5 nm slit. […] The dissociation constant was determined by changes in the fluorescence of the protein solution upon addition of the corresponding peptide ligand at defined concentrations; calculations were made assuming formation of a 1:1 complex. […]

B1: synthetic c-Crk N-terminal SH3 domain obtained by native chemical ligation of peptide thioester SEQ ID NO: 9 and peptide SEQ ID NO: 10 (other)
chain: AEYVRALFDFNGNDEEDLPFKKGCILRIRDKPEEQWWNAEDSEGKRGMIPVPYVEKYG
modifications: N-terminal acetyl (Ac-AEYV...); C-terminal amide implied (peptide SEQ ID NO: 10 made on Rink-amide resin); Cys introduced at the N-terminus of SEQ ID NO: 10 (ligation site); the -SEt thioester of SEQ ID NO: 9 is lost on ligation
notes: used at 0.5 uM in 20 mM sodium phosphate, 100 mM NaCl, pH 7.2; ESMS found 6894.1 Da (calculated 6891.7 Da); also called ligated SH3 domain; synthetic SH3 domain
Binder B1 has a Kd of 900 nM.
